Experimental findings from paper PMC10803253, “Structural insights into the iron nitrogenase complex” (Nature Structural & Molecular Biology, 2023) are described below.

The chains are these.
B3: Fe nitrogenase reductase component AnfH2 (Rhodobacter capsulatus) (enzyme, UniProt Q07942 1-275, looked up)
chain: MTRKIAIYGKGGIGKSTTTQNTAAALAFFHEKNVFIHGCDPKADSTRLILGGLPQQTVMDTLRIEGAERVTVDKVVKTGFKDIRCVESGGPEPGVGCAGRGVITAIDLMEENEAYSEDLDFLFFDVLGDVVCGGFAMPIRDGKAEEVYIVASGEMMAIYAANNICKGLAKYARQSGVRLGGIICNSRNVDGEKEFLEEFTKAIGTKMIHFVPRDNIVQKAEFNKQTVTEFQPEANQAQEYRELGRKIIENEDFVIPKPLAMDELEAMVVKYGLMD
notes: AnfH, nitrogenase iron protein of the Fe-only nitrogenase, Rhodobacter capsulatus B10S; the anfHDGK operon was amplified whole from genomic DNA; Homodimer with one [Fe4S4] cluster between the two chains; in the trapped complex one MgADP·AlF3 per chain; His6-tag inserted without any linker; no cleavage step is described; also called H subunit

Data set [1] concerns the target T1, AnfD, D subunit of the Fe nitrogenase catalytic component (Rhodobacter capsulatus) (Rhodobacter capsulatus, UniProt Q07933 1-526).
T1 construct: AnfD, alpha (D) subunit of the Fe-only nitrogenase, Rhodobacter capsulatus B10S; the anfHDGK operon was amplified whole from genomic DNA; Single subunit, written for the subunit-to-subunit rows of the complexes solved here
Briefly: cryo-EM structure; catalytic component Anf(DGK)2 alone with CHAPSO (0.4% m/V) added on the grid right before plunge freezing; 2.49 Å, C2 symmetry. Conditions: both partners purified.

Data set [2] concerns the target B3. Briefly: cryo-EM structure; ADP·AlF3-stabilized Anf(DGK)2(H2)2 complex after SEC, 1 mg/ml, anaerobic plunge freezing, no detergent; 2.35 Å, C2 symmetry. Conditions: both partners purified.
The target in data set [3] is T1, AnfD, D subunit of the Fe nitrogenase …. Briefly: mass photometry; individual nitrogenase components; 500 nM stock diluted 0.5 µl into 19.5 µl of 150 mM NaCl, 50 mM Tris pH 7.8, 10% glycerol, 10 mM dithionite. Conditions: both partners purified.
For data set [4], the target named is T2, Fe nitrogenase catalytic component Anf(DGK)2 (Rhodobacter capsulatus) (Rhodobacter capsulatus, UniProt Q07933 1-526; Q07934 1-115; Q07935 1-460).
T2 construct: AnfD, alpha (D) subunit of the Fe-only nitrogenase, Rhodobacter capsulatus B10S; the anfHDGK operon was amplified whole from genomic DNA; AnfG, delta (G) subunit of the Fe-only nitrogenase, Rhodobacter capsulatus B10S; AnfK, beta (K) subunit of the Fe-only nitrogenase, Rhodobacter capsulatus B10S; Heterohexamer with two P-clusters [Fe8S7] and two FeFeco [Fe8S9C-(R)-homocitrate]; Strep-tag II …
The data set can be described thus: SEC; 4 nmol catalytic and 32 nmol reductase component, 1 h at 30 °C in 100 mM MOPS, 50 mM Tris, 100 mM NaCl pH 7.3, 5 mM dithionite, 4 mM NaF, 0.2 mM AlCl3, 8 mM MgCl2, 1 mM ATP (ADP·AlF3 trap); SEC in 50 mM Tris pH 7.8, 200 mM NaCl, 5 mM dithionite; anaerobic. Conditions: both partners purified. In general terms: Size exclusion chromatography separates by hydrodynamic size, large species first.

Data set [5] deals with the molecule itself. The data set can be described thus: mass photometry; individual nitrogenase components; 500 nM stock diluted 0.5 µl into 19.5 µl of 150 mM NaCl, 50 mM Tris pH 7.8, 10% glycerol, 10 mM dithionite.

B1: AnfK, K subunit of the Fe nitrogenase catalytic component (Rhodobacter capsulatus) (natural protein, UniProt Q07935 1-460, looked up)
chain: MTCQVTQKAREGTINPIFTCQPAGAQFASIGIKDCIGIVHGGQGCVMFVRLLISQHMKESFEIASSSVHEDGAVFGALDRVETAVEVLLTRYPDVKVVPIITTCSTEIIGDDVDGLLSKLEDELLPTKFPGREVHLLTVHCPSFVGSMITGYDKAVHDFVKKFATKDEPSDKINLITGWVNPGDVKELKHLLEVMEVKANVLFEVESFDSPLMPDLEHHSHGSTTIEDLRDTANAKGTIALNRYEGMKAADYLKKKFKVPAVIGPTPVGIRNTDAFLKAVSEMTGQPIPAQLVKERGLALDAIADIGHMFLADKRVAIYANPDLAIGLTEFCLDLEMKPKLLLLGDDNSGYVKDPRVVALQENAPDLEIVTNADFWDLESRIQQGLELDLILGHSKGRFISIDYKVPMVRVGFPTYDRAGMYRHPVLGYGGAMFLAETMANTLFADMEAKKNKEWILNVW
notes: AnfK, beta (K) subunit of the Fe-only nitrogenase, Rhodobacter capsulatus B10S; the anfHDGK operon was amplified whole from genomic DNA; Single subunit, written for the subunit-to-subunit rows of the complexes solved here
B1: in data set [1], the binding result is listed as “binds”.

B2: AnfG, G subunit of the Fe nitrogenase catalytic component (Rhodobacter capsulatus) (natural protein, UniProt Q07934 1-115, looked up)
chain: MTDISEKLDPLVDYIMKNCLWQFNSRGWDRLKQNAGILSQTCEILCGEEPVHETAMDRCYWVDAVILSRAYKARFPWLMAMTKPEIKSLFKALHEKIDHLTVHGSLNTELTVPHY
notes: AnfG, delta (G) subunit of the Fe-only nitrogenase, Rhodobacter capsulatus B10S; the anfHDGK operon was amplified whole from genomic DNA; Single subunit, written for the subunit-to-subunit rows of the complexes solved here
As for B2, the binding result in data set [2] and in data set [3] was “binds” in each case.
Usually stoichiometry N stands for the number of molecules, sites or subunits per partner or assembly. B3: the “stoichiometry N” value is 2 AnfH2 per Anf(DGK)2 in data set [4] and 2 subunits in the oligomer in data set [5].
